Test results published in patent US20090148383A1.

How the values were obtained:
[1] = target: recombinant tick anticoagulant peptide (rTAP) (UniProt P17726)
[2] = target: activated, fibrinogen-bound GP IIb/IIIa on activated mouse platelets (mouse) (UniProt Q9QUM0); assay: histology of the wire-injured mouse femoral artery after bead perfusion
[3] = target: activated, fibrinogen-bound GP IIb/IIIa on activated mouse platelets (mouse) (UniProt Q9QUM0); assay: ex vivo 11.7 T MRI of the wire-injured mouse femoral artery after bead perfusion

Chain of activated, fibrinogen-bound GP IIb/IIIa on activated mouse platelets (mouse) (Q9QUM0 32-1033, chain 1 of 2): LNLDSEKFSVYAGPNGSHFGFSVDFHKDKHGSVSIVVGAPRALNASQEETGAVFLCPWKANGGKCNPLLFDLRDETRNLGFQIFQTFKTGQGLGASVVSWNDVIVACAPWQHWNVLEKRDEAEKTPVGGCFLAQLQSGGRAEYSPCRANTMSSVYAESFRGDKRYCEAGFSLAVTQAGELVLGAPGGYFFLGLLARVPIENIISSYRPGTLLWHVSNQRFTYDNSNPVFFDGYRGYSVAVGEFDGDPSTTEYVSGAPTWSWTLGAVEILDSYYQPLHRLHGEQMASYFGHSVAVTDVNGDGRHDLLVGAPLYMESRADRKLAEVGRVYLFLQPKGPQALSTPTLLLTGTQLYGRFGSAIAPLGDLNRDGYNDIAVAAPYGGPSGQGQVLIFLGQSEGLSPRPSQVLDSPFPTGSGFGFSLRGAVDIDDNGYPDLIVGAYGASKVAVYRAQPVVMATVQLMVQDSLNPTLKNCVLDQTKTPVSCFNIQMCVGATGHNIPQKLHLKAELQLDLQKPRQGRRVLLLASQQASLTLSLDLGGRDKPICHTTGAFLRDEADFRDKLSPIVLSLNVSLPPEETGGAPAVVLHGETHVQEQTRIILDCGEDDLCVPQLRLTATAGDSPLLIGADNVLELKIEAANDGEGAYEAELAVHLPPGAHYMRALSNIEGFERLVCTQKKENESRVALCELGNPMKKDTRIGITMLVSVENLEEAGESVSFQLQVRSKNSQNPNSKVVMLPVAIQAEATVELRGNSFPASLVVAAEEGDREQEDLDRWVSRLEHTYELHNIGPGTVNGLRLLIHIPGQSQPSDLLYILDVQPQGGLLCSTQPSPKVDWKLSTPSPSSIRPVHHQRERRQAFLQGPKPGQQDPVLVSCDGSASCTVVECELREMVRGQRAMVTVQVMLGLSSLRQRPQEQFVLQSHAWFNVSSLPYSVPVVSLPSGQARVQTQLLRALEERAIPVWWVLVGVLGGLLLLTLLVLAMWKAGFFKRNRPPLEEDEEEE
Chain of activated, fibrinogen-bound GP IIb/IIIa on activated mouse platelets (mouse) (O54890 26-787, chain 2 of 2, further chain): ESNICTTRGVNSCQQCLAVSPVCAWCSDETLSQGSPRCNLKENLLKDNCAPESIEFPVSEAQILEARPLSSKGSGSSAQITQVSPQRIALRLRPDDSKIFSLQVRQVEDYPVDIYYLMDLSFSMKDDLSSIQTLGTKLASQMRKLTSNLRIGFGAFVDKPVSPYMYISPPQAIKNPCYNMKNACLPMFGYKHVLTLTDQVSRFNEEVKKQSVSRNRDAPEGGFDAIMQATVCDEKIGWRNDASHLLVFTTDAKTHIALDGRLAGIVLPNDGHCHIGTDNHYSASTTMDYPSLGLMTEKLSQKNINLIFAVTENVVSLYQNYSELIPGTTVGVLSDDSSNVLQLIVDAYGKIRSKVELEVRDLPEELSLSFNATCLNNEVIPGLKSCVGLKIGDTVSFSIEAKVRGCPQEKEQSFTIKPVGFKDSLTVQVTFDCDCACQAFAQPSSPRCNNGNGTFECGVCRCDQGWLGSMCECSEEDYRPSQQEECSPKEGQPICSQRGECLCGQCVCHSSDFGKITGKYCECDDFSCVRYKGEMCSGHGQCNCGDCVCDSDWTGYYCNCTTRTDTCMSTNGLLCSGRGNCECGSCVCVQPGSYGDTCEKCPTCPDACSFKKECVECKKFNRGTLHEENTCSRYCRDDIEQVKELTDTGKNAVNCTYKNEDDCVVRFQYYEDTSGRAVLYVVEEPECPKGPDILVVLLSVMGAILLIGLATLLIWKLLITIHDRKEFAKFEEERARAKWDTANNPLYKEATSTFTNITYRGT
Chain of recombinant tick anticoagulant peptide (rTAP) (P17726 whole entry, the tested form may be a part): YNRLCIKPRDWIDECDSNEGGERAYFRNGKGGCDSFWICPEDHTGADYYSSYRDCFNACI

Substance	cleavage of chromogenic substrate (spectrozyme FXa #222) by factor Xa (500 pM), OD at 405 nm [1]	MPIO-binding (beads per section) (beads per section) [2]	luminal areas of low signal suggesting MPIO-accumulation (ex vivo MRI) [3]
factor Xa	inhibition of factor Xa activity by rTAP, scFv anti-LIBS-TAP, and non-targeted mut-scFv-TAP, but not by scFv anti-LIBS		
irrelevant single-chain antibody conjugated to MPIO (Control-MPIO) (scFv)		0.5	6.2
scFv anti-LIBS (anti-LIBS single-chain antibody)		9.98	23.7
